Key:
HuR full-length [1] = target: T1, HuR full-length (UniProt Q15717 1-326); experiment: competition fluorescence polarisation; 8 nM HuR, 8 nM Msi1-FITC probe N1 displaced; FP: 10 mM HEPES pH 7.4, 150 mM NaCl, 3 mM EDTA, 0.05% Tween-20; competition 5 min at room temperature; SPR: Biacore 8K, streptavidin chip, buffer not given in the material; details: protein: recombinant; tags: Avi-tag, TEV-cleavable His-tag; single-stranded
HuR full-length [2] = target: T1, HuR full-length; experiment: fluorescence polarisation; 10 nM probe, 0-2000 nM HuR; FP: 10 mM HEPES pH 7.4, 150 mM NaCl, 3 mM EDTA, 0.05% Tween-20; competition 5 min at room temperature; SPR: Biacore 8K, streptavidin chip, buffer not given in the material; details: protein: recombinant; tags: Avi-tag, TEV-cleavable His-tag; label: 3' fluorescein (3FluorT; printed after the 3' G, may add a labelled T); single-stranded

T1 sequence (Q15717 whole entry): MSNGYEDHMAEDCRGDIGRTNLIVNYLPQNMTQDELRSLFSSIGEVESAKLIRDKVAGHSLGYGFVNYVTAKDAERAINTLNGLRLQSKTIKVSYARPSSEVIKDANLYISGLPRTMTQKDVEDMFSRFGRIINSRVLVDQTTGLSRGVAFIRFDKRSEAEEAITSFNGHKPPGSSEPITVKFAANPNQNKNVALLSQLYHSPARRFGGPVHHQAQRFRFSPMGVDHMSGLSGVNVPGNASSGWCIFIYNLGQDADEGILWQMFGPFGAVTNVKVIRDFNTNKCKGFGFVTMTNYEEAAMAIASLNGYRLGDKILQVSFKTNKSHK

B1: unlabelled Msi1 RNA (ssRNA)
RNA: GCUUUUAUUUAUUUUG
- Ki (HuR full-length [1]): 4 nM

B2: Msi1-FITC RNA probe (ssRNA)
RNA: GCUUUUAUUUAUUUUG
- Kd (HuR full-length [2]): 3.7 nM

Reference: PMC10625600, “A TRIM21-based bioPROTAC highlights the therapeutic benefit of HuR degradation”
